Reference: patent US20240410900A1 (Hoffmann-La Roche, published 2024)
Positions count from the first letter of the chain named.

B1: anti-AAA variant Fc-region antibody M1.6.22 (antibody, V domains shown)
VH: EVQLVESGGDLVKPGGSLKLSCAASGFTFSSYGMSWVRQTPDKRLEWVATISSGGSYIYYPDSVKGRFTISRDNAKNTLYLQMSSLKSEDTAMYYCARLGMITTGYAMDYWGQGTSVTVSS
VL: DVLMTQTPLSLPVSLGDQASISCRSSQTIVHSTGHTYLEWFLQKPGQSPKLLIYKVSNRFSGVPDRFSGSGSGTDFTLKISRVEAEDLGVYYCFQGSHVPYTFGGGTKLEIK
notes: Murine variable domains; also called M1.6.22-Bi
B2: anti-PG variant Fc-region antibody M1.3.17 (antibody, V domains shown)
VH: EVKLLESGGGLVQPGGSLKLSCAASGIDFRRYWMNWVRQAPGKGLEWIGEIDPDSSTINYTPSLKDKFIISRDNAKNTMYLQMRKVRSEDTALYYCARPYDYGAWFAYWGQGTLVTVSA
VL: QAVVTQESALTTSPGETVTLTCRSTTGAVTTSNYANWVQEKPDHLFTGLIGGTNKRAPGVPARFSGSLIGDKAALTITGAQTEDEAIYFCALWYSDHWVFGGGTKLTVL
notes: Monomeric, bivalent full-length antibody with murine variable domains; Biotinylated when used as capture antibody; also called anti-PG antibody clone 1.3.17; M1.3.17-Bi
B3: anti-PG variant Fc-region antibody M1.7.24 (monomeric, bivalent) (antibody, V domains shown)
VH: B2 VH with I27F, R30S, D52T, M79L, R84I, A97V, Y108S
VL: B2 VL with T25S, D96N
notes: Full-length Y-shaped antibody with murine variable domains; Biotinylated when used as capture antibody; also called anti-PG antibody clone 1.7.24; M1.7.24-Bi

Molecular target: T1, anti-VEGF/ANG2 antibody (IgG1 subclass with mutations P329G/L234A/L235A/I253A/H310A/H435A)
T1 construct: Format of the bispecific antibody not described; Positions are EU numbers, not positions on the UniProt entry; also called sample 1; antibody 1
Assay: ELISA assay C, tracer FcγRI-Dig, target 2 ng/mL

signal [OD405 nm]	Binder
0.077 OD405 nm	B1
1.17 OD405 nm	B2
0.085 OD405 nm	B3

Molecular target: T2, anti-VEGF/ANG2 antibody (IgG1 subclass with mutations P329G/L234A/L235A)
T2 construct: Positions are EU numbers; also called sample 2; antibody 2
Assay: ELISA assay C, tracer FcγRI-Dig, target 2 ng/mL

signal [OD405 nm]	Binder
0.072 OD405 nm	B1
1.22 OD405 nm	B2
0.093 OD405 nm	B3

Molecular target: T3, anti-IGF-1R antibody (IgG1 subclass with mutations I253A/H310A/H435A)
T3 construct: Positions are EU numbers; also called sample 3; antibody 3
Assay: ELISA assay C, tracer FcγRI-Dig, target 2 ng/mL

signal [OD405 nm]	Binder
0.082 OD405 nm	B1
1.26 OD405 nm	B2
0.074 OD405 nm	B3

Molecular target: T4, anti-P-Selectin antibody (IgG4 subclass with mutations S228P/L235E)
T4 construct: Positions are EU numbers; also called sample 4; antibody 4
Assay: ELISA assay C, tracer FcγRI-Dig, target 2 ng/mL

signal [OD405 nm]	Binder
0.067 OD405 nm	B1
1.19 OD405 nm	B2
0.056 OD405 nm	B3

Molecular target: T5, anti-VEGF/ANG2 antibody (wild-type IgG1 subclass) (UniProt P01857-1 1-330 = IgG part)
T5 construct: also called sample 5; antibody 5
Assay: ELISA assay C, tracer FcγRI-Dig, target 2 ng/mL

signal [OD405 nm]	Binder
0.077 OD405 nm	B1
1.19 OD405 nm	B2
0.058 OD405 nm	B3

Molecular target: T1, anti-VEGF/ANG2 antibody (IgG1 subclass …)
Assay: ELISA assay B, tracer M1.7.10-Dig, target 2 ng/mL
Method: (§1) Biotinylated anti-PG Fc-region antibody or biotinylated anti-AAA Fc-region antibody, respectively, was bound to the wells of a streptavidin-coated multi-well plate (SA-MTP) to produce a capture plate. Excess of unbound antibody was removed by washing. Sample/standard antibodies spiked in human and cynomolgus monkey serum (10% final concentration) was added to wells of the SA-MTP multi-well plate coated with the capture plate and incubated for 1 hour at room temperature. After washing, the wells were incubated with digoxygenylated anti-human kappa antibody M1.7.10 (see e.g. WO 2011/048043, incorporated herein by reference). After washing the bound digoxygenylated anti-human kappa antibody complex was incubated with a horseradish peroxidase (HRP) labelled anti-digoxygenin antibody. After another washing step, an ABTS solution was added to the wells and incubated. The product of the color reaction was measured by Elisa reader at 405 nm wavelength (reference wavelength: 490 nm). Absorbance values of each sample or standard were determined in triplicates.

signal [OD405 nm]	Binder
0.041 OD405 nm	B1
0.036 OD405 nm	B2
0.049 OD405 nm	B3

Molecular target: T2, anti-VEGF/ANG2 antibody (IgG1 subclass …)
Assay: ELISA assay B, tracer M1.7.10-Dig, target 2 ng/mL
Method: as §1

signal [OD405 nm]	Binder
0.041 OD405 nm	B1
0.125 OD405 nm	B2
1.73 OD405 nm	B3

Molecular target: T3, anti-IGF-1R antibody (IgG1 subclass …)
Assay: ELISA assay B, tracer M1.7.10-Dig, target 2 ng/mL
Method: as §1

signal [OD405 nm]	Binder
1.48 OD405 nm	B1
0.047 OD405 nm	B2
0.047 OD405 nm	B3

Molecular target: T4, anti-P-Selectin antibody (IgG4 subclass …)
Assay: ELISA assay B, tracer M1.7.10-Dig, target 2 ng/mL
Method: as §1

signal [OD405 nm]	Binder
0.032 OD405 nm	B1
0.049 OD405 nm	B2
0.033 OD405 nm	B3

Molecular target: T5, anti-VEGF/ANG2 antibody (wild-type IgG1 …)
Assay: ELISA assay B, tracer M1.7.10-Dig, target 2 ng/mL
Method: as §1

signal [OD405 nm]	Binder
0.036 OD405 nm	B1
0.043 OD405 nm	B2
0.034 OD405 nm	B3

Molecular target: T5, anti-VEGF/ANG2 antibody (wild-type IgG1 …)
Assay: ELISA assay B, tracer M1.7.10-Dig, target 3 ng/mL
Method: as §1

signal [OD405 nm]	Binder
0.037 OD405 nm	B1
0.044 OD405 nm	B2
0.033 OD405 nm	B3

Molecular target: T3, anti-IGF-1R antibody (IgG1 subclass …)
Assay: ELISA assay B, tracer M1.7.10-Dig, target 6 ng/mL
Method: as §1

signal [OD405 nm]	Binder
2.73 OD405 nm	B1
0.045 OD405 nm	B2
0.039 OD405 nm	B3

Molecular target: T5, anti-VEGF/ANG2 antibody (wild-type IgG1 …)
Assay: ELISA assay B, tracer M1.7.10-Dig, target 6 ng/mL
Method: as §1

signal [OD405 nm]	Binder
0.039 OD405 nm	B1
0.046 OD405 nm	B2
0.038 OD405 nm	B3

Molecular target: T1, anti-VEGF/ANG2 antibody (IgG1 subclass …)
Assay: ELISA assay B, tracer M1.7.10-Dig, target 13 ng/mL
Method: as §1

signal [OD405 nm]	Binder
0.041 OD405 nm	B1
0.034 OD405 nm	B2
0.053 OD405 nm	B3

Molecular target: T2, anti-VEGF/ANG2 antibody (IgG1 subclass …)
Assay: ELISA assay B, tracer M1.7.10-Dig, target 13 ng/mL
Method: as §1

signal [OD405 nm]	Binder
0.066 OD405 nm	B1
0.217 OD405 nm	B2
3.15 OD405 nm	B3

Molecular target: T3, anti-IGF-1R antibody (IgG1 subclass …)
Assay: ELISA assay B, tracer M1.7.10-Dig, target 13 ng/mL
Method: as §1

signal [OD405 nm]	Binder
2.85 OD405 nm	B1
0.044 OD405 nm	B2
0.043 OD405 nm	B3

Molecular target: T4, anti-P-Selectin antibody (IgG4 subclass …)
Assay: ELISA assay B, tracer M1.7.10-Dig, target 13 ng/mL
Method: as §1

signal [OD405 nm]	Binder
0.042 OD405 nm	B1
0.047 OD405 nm	B2
0.037 OD405 nm	B3

Molecular target: T5, anti-VEGF/ANG2 antibody (wild-type IgG1 …)
Assay: ELISA assay B, tracer M1.7.10-Dig, target 13 ng/mL
Method: as §1

signal [OD405 nm]	Binder
0.046 OD405 nm	B1
0.042 OD405 nm	B2
0.04 OD405 nm	B3

Molecular target: T1, anti-VEGF/ANG2 antibody (IgG1 subclass …)
Assay: ELISA assay B, tracer M1.7.10-Dig, target 25 ng/mL
Method: as §1

signal [OD405 nm]	Binder
0.044 OD405 nm	B1
0.035 OD405 nm	B2
0.047 OD405 nm	B3

Molecular target: T2, anti-VEGF/ANG2 antibody (IgG1 subclass …)
Assay: ELISA assay B, tracer M1.7.10-Dig, target 25 ng/mL
Method: as §1

signal [OD405 nm]	Binder
0.092 OD405 nm	B1
0.213 OD405 nm	B2
3.16 OD405 nm	B3

Molecular target: T3, anti-IGF-1R antibody (IgG1 subclass …)
Assay: ELISA assay B, tracer M1.7.10-Dig, target 25 ng/mL
Method: as §1

signal [OD405 nm]	Binder
2.89 OD405 nm	B1
0.046 OD405 nm	B2
0.048 OD405 nm	B3

Molecular target: T4, anti-P-Selectin antibody (IgG4 subclass …)
Assay: ELISA assay B, tracer M1.7.10-Dig, target 25 ng/mL
Method: as §1

signal [OD405 nm]	Binder
0.048 OD405 nm	B1
0.047 OD405 nm	B2
0.04 OD405 nm	B3

Molecular target: T5, anti-VEGF/ANG2 antibody (wild-type IgG1 …)
Assay: ELISA assay B, tracer M1.7.10-Dig, target 25 ng/mL
Method: as §1

signal [OD405 nm]	Binder
0.047 OD405 nm	B1
0.043 OD405 nm	B2
0.041 OD405 nm	B3
